Measured values: PMC6627510, “The Role of a Key Amino Acid Position in Species-Specific Proteinaceous dUTPase Inhibition” (Biomolecules, 2019)

Experiments:
[1] = target: Escherichia coli dUTPase Q93H mutant (Escherichia coli); test: crystal structure; EcDUT^Q93H with 5 mM dUPNPP; hanging drop, 0.1 M TRIS, 18-33.75 % PEG 3350, 400 mM NaAc, pH 7.5, 295 K
[2] = target: Escherichia coli dUTPase Q93R mutant (Escherichia coli)
[3] = target: Escherichia coli dUTPase Q93H mutant (Escherichia coli)
[4] = target: Escherichia coli dUTPase Q93R mutant (Escherichia coli); test: steady-state enzyme inhibition; 50 nM dUTPase, 0-400 nM Stl, 5 min pre-incubation at 20 °C, 30 µM dUTP; 1 mM HEPES, 150 mM KCl, 5 mM MgCl2, 40 µM phenol red, pH 7.5; quadratic equation fitted, K is the Ki (IC50)
[5] = target: Escherichia coli dUTPase Q93H mutant (Escherichia coli); test: as above

stoichiometry N [1] | Substance | decrease of the steady-state velocity of dUTPase on Stl addition [2] [%] | decrease of the steady-state velocity of dUTPase on Stl addition [3] [%] | Ki [4] [nM] | Ki [5] [nM]
3 | Escherichia coli dUTPase Q93H mutant (enzyme) |  |  |  | 
 | Stl_(SaPIbov1) protein (staphylococcal repressor) (natural protein) | 47 | 58 | 5.9 | 4.83
